Test results as given in patent US20220403023A1 (WUXI BIOLOGICS IRELAND, published 2022).

Legend:
human CD47 ECD protein [1] = biological target: T1, human CD47 ECD protein (human, UniProt Q08722 19-139, limits assumed); assay: SPR Biacore T200, antibody captured on anti-human IgG Fc chip, human CD47 as analyte, 1:1 model
T1 construct: extracellular domain; The assays say only 'human CD47 ECD protein' / 'Human CD47 protein'; 55 kDa was used as molecular weight in SPR; also called human CD47 protein; W345-hPro1.ECD (sino)
Protocol: Each antibody was captured on an anti-human IgG Fc antibody immobilized CMS sensor chip (GE). Human CD47 protein at different concentrations were injected over the sensor chip at a flow rate of 30 uL/min for an association phase of 180 s, followed by 3600 s dissociation. The chip was regenerated by 10 mM glycine (pH 1.5) after each binding cycle. The sensorgrams of blank surface and buffer channel were subtracted from the test sensorgrams. The experimental data was fitted by 1:1 model using Langmiur analysis. Molecular weight of 55 kDa was used to calculate the molar concentration of analyte antigen.

[2] = biological target: T2, human CD47 on engineered CHO-K1 cells (human, UniProt Q08722 19-323); assay: FACS on CHO-K1 cells expressing human CD47 (CHOK1-huCD47), goat anti-human IgG-Fc PE
T2 construct: whole, on cells; also called human CD47-expressing cells
Protocol: (§1) Briefly, the engineered CD47-expressing cells were coated into 96-well U-bottom plates at a density of 1×10⁵ cells/well and centrifuged at 1500 rpm at 4° C. for 4 min before removing the supernatant. […] The cells were washed twice with 180 μL 1% BSA-PBS. The secondary antibody, Goat Anti-human IgG-Fc PE was added to re-suspend cells and incubated at 4° C. in the dark for 30 min followed by washing with 180 μL 1% BSA-PBS. At the end, the cells were re-suspended in 100 μL 1% BSA-PBS, and the fluorescence intensity was measured by FACS (BD Canto II) and analyzed by FlowJo Version software. The binding EC50s were calculated by using GraphPad Prism software equation: Nonlinear regression (curve fit)—log (agonist) vs. response—Variable slope.

4-1B8.his = assay: non-specific binding ELISA, protein coated 1 µg/mL, lead antibody at 10 ug/ml
4-1B8.his, sequence (Q07011 24-186): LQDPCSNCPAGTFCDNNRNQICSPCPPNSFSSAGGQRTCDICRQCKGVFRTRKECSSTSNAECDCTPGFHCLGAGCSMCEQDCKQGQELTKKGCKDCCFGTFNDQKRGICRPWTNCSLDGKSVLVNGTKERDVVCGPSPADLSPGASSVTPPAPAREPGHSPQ
Protocol: (§2) The 96-well high binding plates were coated with 14 different proteins at 1 μg/mL at 4° C. overnight and blocked with 2% BSA-PBS for 1 hr. […] Then the Goat anti-human IgG-Fc-HRP secondary antibody was added and incubated for 1 hr. The TMB peroxidase substrate solution was added and then reaction was stopped after 12 minutes using 2M HCl. All incubation steps were performed at room temperature, and the plates were washed 5 times with PBST at pH 7.4 between steps. The absorbance of testing samples was measured at 450 nm with a multiwall plate reader (SpectraMax® M5e).

FGFR.his = assay: as above
Protocol: as §2

HSA. [3] = biological target: T3, HSA. (UniProt P02768 25-609); assay: as above
Protocol: as §2

HER3.his [4] = biological target: T4, HER3.his (Homo sapiens (Human), UniProt P21860 20-643); assay: as above
Protocol: as §2

VEGF.his = assay: as above
VEGF.his, sequence (P15692 whole entry): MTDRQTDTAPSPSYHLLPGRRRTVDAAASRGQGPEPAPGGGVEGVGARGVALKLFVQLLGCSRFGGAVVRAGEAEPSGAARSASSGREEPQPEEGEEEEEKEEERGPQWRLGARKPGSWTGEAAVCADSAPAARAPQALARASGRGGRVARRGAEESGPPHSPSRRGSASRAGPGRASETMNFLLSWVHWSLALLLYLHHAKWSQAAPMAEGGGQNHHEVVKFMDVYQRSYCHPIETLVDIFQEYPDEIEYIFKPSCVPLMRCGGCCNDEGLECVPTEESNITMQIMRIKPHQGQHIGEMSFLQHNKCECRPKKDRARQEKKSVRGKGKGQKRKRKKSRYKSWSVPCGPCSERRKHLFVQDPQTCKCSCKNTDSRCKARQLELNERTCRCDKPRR
Protocol: as §2

Factor Eight = assay: as above
Protocol: as §2

CD147.his = assay: as above
Protocol: as §2

VEGFR2.his = assay: as above
VEGFR2.his, sequence (P35968 20-764): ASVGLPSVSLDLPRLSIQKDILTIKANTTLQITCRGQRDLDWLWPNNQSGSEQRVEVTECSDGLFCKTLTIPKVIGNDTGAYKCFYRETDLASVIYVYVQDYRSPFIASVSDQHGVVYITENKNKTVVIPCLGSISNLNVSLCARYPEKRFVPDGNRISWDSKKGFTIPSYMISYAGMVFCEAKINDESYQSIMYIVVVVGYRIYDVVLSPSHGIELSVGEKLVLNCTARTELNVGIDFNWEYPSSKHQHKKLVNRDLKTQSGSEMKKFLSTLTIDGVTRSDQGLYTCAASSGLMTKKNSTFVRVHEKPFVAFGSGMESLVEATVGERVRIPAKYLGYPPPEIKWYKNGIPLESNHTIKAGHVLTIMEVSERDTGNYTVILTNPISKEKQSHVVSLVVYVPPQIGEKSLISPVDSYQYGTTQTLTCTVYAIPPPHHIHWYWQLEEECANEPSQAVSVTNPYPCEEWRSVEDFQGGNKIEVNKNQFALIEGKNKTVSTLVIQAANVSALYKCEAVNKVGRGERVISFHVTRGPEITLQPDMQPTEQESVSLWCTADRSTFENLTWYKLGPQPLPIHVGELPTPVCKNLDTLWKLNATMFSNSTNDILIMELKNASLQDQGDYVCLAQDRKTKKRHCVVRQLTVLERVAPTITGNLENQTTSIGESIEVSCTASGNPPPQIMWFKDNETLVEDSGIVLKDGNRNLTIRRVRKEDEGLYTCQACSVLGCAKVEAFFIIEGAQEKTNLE
Protocol: as §2

CD3.his = assay: as above
Protocol: as §2

CTLA4.his = assay: as above
CTLA4.his, sequence (P16410 36-161): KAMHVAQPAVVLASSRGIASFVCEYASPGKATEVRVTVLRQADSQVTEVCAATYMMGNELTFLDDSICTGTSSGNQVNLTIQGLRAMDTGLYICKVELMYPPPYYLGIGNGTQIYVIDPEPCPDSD
Protocol: as §2

CD22.his = assay: as above
Protocol: as §2

OX40.his = assay: as above
OX40.his, sequence (P43489 29-214): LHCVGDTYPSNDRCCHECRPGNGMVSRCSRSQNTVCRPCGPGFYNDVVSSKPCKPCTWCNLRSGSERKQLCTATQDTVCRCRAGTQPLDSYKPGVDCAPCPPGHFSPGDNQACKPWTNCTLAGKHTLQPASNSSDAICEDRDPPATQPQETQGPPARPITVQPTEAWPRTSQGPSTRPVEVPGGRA
Protocol: as §2

PD-1.his [5] = biological target: T5, PD-1.his (Homo sapiens (Human), UniProt Q15116 25-170); assay: as above
T5 sequence (Q15116 25-170 limits assumed): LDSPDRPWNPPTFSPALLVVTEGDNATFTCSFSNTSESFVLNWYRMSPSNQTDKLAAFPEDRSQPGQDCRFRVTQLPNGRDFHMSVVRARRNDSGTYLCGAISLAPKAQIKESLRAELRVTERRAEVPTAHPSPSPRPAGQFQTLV
Protocol: as §2

CD40.his = assay: as above
CD40.his, sequence (P25942 21-193): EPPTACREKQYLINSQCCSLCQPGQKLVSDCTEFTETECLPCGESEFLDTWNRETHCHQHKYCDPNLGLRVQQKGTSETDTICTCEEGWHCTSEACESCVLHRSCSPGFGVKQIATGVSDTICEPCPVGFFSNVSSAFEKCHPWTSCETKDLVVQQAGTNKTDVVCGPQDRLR
Protocol: as §2

HSA. [6] = biological target: T3, HSA.; assay: ELISA, protein coated at 1 µg/mL
HER3.his [7] = biological target: T4, HER3.his; assay: ELISA, protein coated at 1 µg/mL
PD-1.his [8] = biological target: T5, PD-1.his; assay: ELISA, protein coated at 1 µg/mL
human CD47 ECD protein [9] = biological target: T1, human CD47 ECD protein; assay: ELISA on plate-coated human CD47 ECD (1 µg/mL), goat anti-human IgG-Fc-HRP, OD450
Protocol: Then the Goat anti-human IgG-Fc-HRP secondary antibody was added and incubated for 1 hr. […] All incubation steps were performed at room temperature, and the plates were washed 5 times with PBST at pH 7.4 between steps.

[10] = biological target: T2, human CD47 on engineered CHO-K1 cells; assay: competition FACS: CHO-K1 cells expressing human CD47, antibody titrated together with human SIRPα-His (1 µg/mL), bound SIRPα detected with anti-His-biotin and streptavidin-PE
Protocol: At the end, the cells were re-suspended in 100 μL 1% BSA-PBS, and the fluorescence intensity was measured by FACS (BD Canto II) and analyzed by FlowJo Version software. The competitive binding IC50s were calculated by using GraphPad Prism software equation: Nonlinear regression (curve fit)—log (antagonist) vs. response—Variable slope.

[11] = biological target: T6, CD47 on human red blood cells (human, UniProt Q08722 19-323); assay: FACS on human red blood cells, goat anti-human IgG-Fc PE
T6 construct: whole, on cells; also called human RBCs; hRBC
Protocol: The cells were washed twice with 180 μL 1% BSA-PBS. The secondary antibody, Goat Anti-human IgG-Fc PE was added to re-suspend cells and incubated at 4° C. in the dark for 30 min followed by washing with 180 μL 1% BSA-PBS. At the end, the cells were re-suspended in 100 μL 1% BSA-PBS, and the fluorescence intensity was measured by FACS (BD Canto II) and analyzed by FlowJo Version software. The binding EC50s were calculated by using GraphPad Prism software equation: Nonlinear regression (curve fit)—log (agonist) vs. response—Variable slope.

[12] = biological target: T7, cynomolgus monkey CD47 on engineered CHO-K1 cells (cynomolgus monkey, UniProt A0A5F8AK49 19-323 (rhesus entry)); assay: FACS on CHO-K1 cells expressing cynomolgus CD47 (CHOK1-cynoCD47), goat anti-human IgG-Fc PE
T7 construct: whole, on cells; also called cyno CD47 expressing cells; cynomolgus monkey CD47-expressing cells
Protocol: as §1

human CD47 ECD protein [13] = biological target: T1, human CD47 ECD protein; assay: competition ELISA: plate-coated human CD47 ECD (1 µg/mL), antibody titrated together with human SIRPα-His (1 µg/mL), bound SIRPα detected with anti-His-HRP
Protocol: 96-well plates were coated with human CD47 ECD at 1 μg/mL at 4° C. overnight and blocked with 2% BSA-PBS for 1 hr. […] The TMB peroxidase substrate solution was added and then reaction was stopped after 12 minutes using 2M HCl. All incubation steps were performed at room temperature, and the plates were washed with PBST between steps. The absorbance of the testing samples was measured at 450 nm with a multiwall plate reader. The competitive binding IC50s were calculated by using GraphPad Prism software equation: Nonlinear regression (curve fit)—log (antagonist) vs. response—Variable slope.

- Kd (human CD47 ECD protein [1]): 0.0223 nM
- koff (human CD47 ECD protein [1]): 2.34e-05 s⁻¹
- kon (human CD47 ECD protein [1]): 1.05e+06 M⁻¹ s⁻¹
- EC50 [2]: 2.99 nM
- ELISA-OD450 (4-1B8.his): 0.0551
- ELISA-OD450 (FGFR.his): 0.138
- ELISA-OD450 (HSA. [3]): 0.324
- ELISA-OD450 (HER3.his [4]): 0.0462
- ELISA-OD450 (VEGF.his): 0.0475
- ELISA-OD450 (Factor Eight): 0.0498
- ELISA-OD450 (CD147.his): 0.0463
- ELISA-OD450 (VEGFR2.his): 0.0452
- ELISA-OD450 (CD3.his): 0.0527
- ELISA-OD450 (CTLA4.his): 0.0573
- ELISA-OD450 (CD22.his): 0.0478
- ELISA-OD450 (OX40.his): 0.0487
- ELISA-OD450 (PD-1.his [5]): 0.227
- ELISA-OD450 (CD40.his): 0.209
- binding result (HSA. [6]): no binding (tested: 10 ug/ml)
- binding result (HER3.his [7]): no binding (tested: 10 ug/ml)
- binding result (PD-1.his [8]): no binding (tested: 10 ug/ml)
- EC50 (human CD47 ECD protein [9]): 0.038 nM
- IC50 [10]: 20.1 nM
- EC50 [11]: 76.7 nM
- EC50 [12]: 2.71 nM
- IC50 (human CD47 ECD protein [13]): 3.21 nM
B1: W3455-4.9.9-uIgG4.SPL (antibody, V domains shown)
VH: EVQLLESGGGLVQPGGSLRLSCAASGFTFSNFAMSWVRQAPGKGLEWVSTISASGGRTFYADSVKGRITISRDNSKNTLFLQMNGLRAEDTAVYYCAKEGSFGEGVDPWGQGTLVTVSS
VL: SYEMTQPPSVSVSPGQTARITCSGDALPKKYAYWYQQKSGQAPVLVIYEDNKRPSGIPERFSGSSSGTMATLTISGAQVEDEADYYCYSTDISGNHWVFGGGTELTVLG
notes: Fully human anti-CD47 antibody; also called W3455 antibody; WBP3455-4.9.9-uIgG4.SPL
